According to patent US20220362368A1:
Like-named read-outs stand apart in the source and are kept apart here.

Assays:
[1] = biological target: SpAQ9,10K/S33E (Staphylococcus aureus)
[2] = biological target: SpAQ9,10K/S33T (Staphylococcus aureus)
[3] = biological target: SpAKKAA (Staphylococcus aureus); assay: ELISA, plate coated with antigen, serial dilutions of rMAb 3F6
[4] = biological target: SpAQ9,10K/S33E (Staphylococcus aureus); assay: as above
[5] = biological target: SpAQ9,10K/S33T (Staphylococcus aureus); assay: as above
[6] = biological target: SpAKKAA (Staphylococcus aureus); assay: ELISA, plates coated with SpAKKAA, serial dilution of rMAb 3F6
human IgG [7] = assay: SPR, test article on chip, human IgG in flow
human IgG [8] = assay: method and unit not given (binding affinity of the variants to human IgG)
human IgE = assay: method and unit not told (binding affinity of the variants to human IgE)
[9] = biological target: F(ab)2 fragment of human IgG; assay: SPR, test article on chip, F(ab)2 fragment of human IgG in flow
[10] = biological target: Fcγ fragment of human IgG (human); assay: BLI, test article on Ni-NTA sensor, Fc fragment of human IgG in solution
[11] = biological target: SpAQ9,10K/S33E (Staphylococcus aureus); remark: listed apart in the source
[12] = biological target: SpAQ9,10K/S33T (Staphylococcus aureus); remark: listed apart in the source
[13] = biological target: SpAKKAA (Staphylococcus aureus); assay: ELISA, plates coated with SpAKKAA, serial dilution of hMAb 3F6
[14] = biological target: SpAKKAA (Staphylococcus aureus); assay: ELISA, association constant calculated with GraphPad Prism; head of the table: KA (x 10^10) M^-1
[15] = biological target: SpAQ9,10K/S33E (Staphylococcus aureus); assay: as above
[16] = biological target: SpAQ9,10K/S33T (Staphylococcus aureus); assay: as above
[17] = biological target: SpAKKAA (Staphylococcus aureus); assay: ELISA, OD 450 against log10(1/dilution of 3F6), initial 0.05 mg/mL
[18] = biological target: SpAQ9,10K/G29F/D36,37A (Staphylococcus aureus) (UniProt P02976); assay: as above

Substance	Ka (human IgG [7]) [M⁻¹]	also measured
recombinant monoclonal antibody rMAb 3F6	–	EC50 (read off the curve) [1]: 0.07 nM; EC50 (read off the curve) [2]: 0.07 nM; Ka [3]: 1.51e+10 M⁻¹; Ka [4]: 1.42e+10 M⁻¹; Ka [5]: 1.34e+10 M⁻¹; EC50 (read off the curve) [6]: 0.07 nM
SpAQ9,10K/S33V (from UniProt A0A0H3K686 37-327)	247000	–
SpAQ9,10K/S33E/G29R (from UniProt P02976 37-327)	484000	–
SpAQ9,10K/G29S (from UniProt A0A0H3K686 37-327)	940000	–
SpAQ9,10K/S33C (from UniProt P02976 37-327)	458000	–
SpAQ9,10K/G29T (from UniProt A0A0H3K686 37-327)	198000	–
SpAQ9,10K/G29E (from UniProt A0A0H3K686 37-327)	318000	–
SpAQ9,10K/S33G (from UniProt P02976 37-327)	1.12e+06	–
SpAQ9,10K/S33Q/G29R (from UniProt A0A0H3K686 37-327)	233000	–
SpAQ9,10K/G29H (from UniProt A0A0H3K686 37-327)	144000	–
SpAQ9,10K/G29K (from UniProt A0A0H3K686 37-327)	974000	–
SpAQ9,10K/G29C (from UniProt A0A0H3K686 37-327)	174000	–
SpAQ9,10K/G29Q (from UniProt A0A0H3K686 37-327)	206000	–
SpAQ9,10K/G29F/D36,37A (from UniProt P02976 37-327)	372000	human IgG affinity (human IgG [8]): 0.0124; human IgE affinity (human IgE): 2.02e-05
SpAQ9,10K/S33I (from UniProt A0A0H3K686 37-327)	184000	–
SpAKKAA (from UniProt A0A0H3K686 37-327)	502000	Ka [9]: 82700 M⁻¹; Ka [10]: 32.9 M⁻¹; human IgG affinity (human IgG [8]): 6.6e-05; human IgE affinity (human IgE): 6.57e-08
SpAQ9,10K/G29W (from UniProt A0A0H3K686 37-327)	451000	–
SpAQ9,10K/G29R/D36,37A (from UniProt A0A0H3K686 37-327)	681000	–
SpAQ9,10K/S33F/D36,37A (from UniProt A0A0H3K686 37-327)	363000	–
SpAQ9,10K/G29M (from UniProt A0A0H3K686 37-327)	389000	–
SpAQ9,10K/S33N (from UniProt A0A0H3K686 37-327)	307000	–
SpAQ9,10K/S33T (from UniProt A0A0H3K686 37-327)	38600	Ka [9]: 43.5 M⁻¹; Ka [10]: 39.9 M⁻¹

Substance	Ka (human IgG [7]) [M⁻¹]	also measured
SpAQ9,10K/S33Q/G29F (from UniProt A0A0H3K686 37-327)	128000	–
SpAQ9,10K/S33M (from UniProt A0A0H3K686 37-327)	318000	–
SpAQ9,10K/G29F (from UniProt A0A0H3K686 37-327)	346000	–
SpAQ9,10K/G29Y (from UniProt A0A0H3K686 37-327)	837000	–
SpAQ9,10K/S33E/D36,37A/G29R (from UniProt P02976 37-327)	1.02e+06	–
SpAQ9,10K/S33F/G29F (from UniProt A0A0H3K686 37-327)	244000	–
SpAQ9,10K/S33L (from UniProt A0A0H3K686 37-327)	205000	–
SpAQ9,10K/G29V (from UniProt A0A0H3K686 37-327)	435000	–
SpAQ9,10K/S33H (from UniProt A0A0H3K686 37-327)	278000	–
SpAQ9,10K/S33E/D36,37A/G29F (from UniProt P02976 37-327)	1.48e+06	–
SpAQ9,10K/S33P (from UniProt P02976 37-327)	422000	–
SpAQ9,10K/S33K/D36,37A (from UniProt A0A0H3K686 37-327)	805000	–
SpAQ9,10K/G29R (from UniProt A0A0H3K686 37-327)	606000	–
SpAQ9,10K/S33K (from UniProt P02976 37-327)	512000	–
SpAQ9,10K/S33D (from UniProt P02976 37-327)	382000	–
SpAQ9,10K/S33E/G29A (from UniProt P02976 37-327)	126000	–
hMAb 3F6 (antibody)	–	EC50 (read off the curve) [11]: 0.3 nM; EC50 (read off the curve) [12]: 0.3 nM; EC50 (read off the curve) [13]: 0.4 nM; Ka [14]: 4.99e+10 M⁻¹; Ka [15]: 9.82e+10 M⁻¹; Ka [16]: 7.96e+10 M⁻¹
wild-type SpA (five immunoglobulin-binding domains of staphylococcal protein A) (from UniProt P02976 37-327)	–	Ka [10]: 5.17e+07 M⁻¹
SpAQ9,10K/S33Q/D36,37A/G29R	638000	–
SpAQ9,10K/S33Q/D36,37A (from UniProt P02976 37-327)	393000	–
SpAQ9,10K/S33E/G29F (from UniProt P02976 37-327)	158000	–
SpAQ9,10K/S33E/D36,37A (from UniProt P02976 37-327)	56800	–

Substance	Ka (human IgG [7]) [M⁻¹]	also measured
SpAQ9,10K/S33Q/D36,37A/G29A	489000	–
SpAQ9,10K/S33A/D36,37A (from UniProt A0A0H3K686 37-327)	1.88e+06	–
SpAQ9,10K/S33Q/D36,37A/G29F	1.25e+06	–
SpAQ9,10K/G29P (from UniProt A0A0H3K686 37-327)	340000	–
SpAQ9,10K/S33Y (from UniProt A0A0H3K686 37-327)	157000	–
SpAQ9,10K/S33F/G29A (from UniProt A0A0H3K686 37-327)	119000	–
SpAQ9,10K/S33R (from UniProt A0A0H3K686 37-327)	346000	–
SpAQ9,10K/S33E/D36,37A/G29A (from UniProt P02976 37-327)	189000	–
SpAQ9,10K/S33Q/G29A (from UniProt A0A0H3K686 37-327)	256000	–
SpAQ9,10K/G29I (from UniProt A0A0H3K686 37-327)	1.01e+06	–
SpAQ9,10K/G29D (from UniProt A0A0H3K686 37-327)	548000	–
SpAQ9,10K/S33W (from UniProt A0A0H3K686 37-327)	236000	–
SpAQ9,10K/G29L (from UniProt A0A0H3K686 37-327)	315000	–
3F6 (antibody)	–	EC50 (read off the curve) [17]: 6 ng/mL; EC50 (read off the curve) [18]: 6 ng/mL
SpAQ9,10K/G29A/D36,37A (from UniProt A0A0H3K686 37-327)	178000	human IgG affinity (human IgG [8]): 0.000143; human IgE affinity (human IgE): 3.43e-06
SpAQ9,10K/G29A (from UniProt A0A0H3K686 37-327)	1.13e+06	–
SpAQ9,10K/S33F/G29R (from UniProt A0A0H3K686 37-327)	190000	–
SpAQ9,10K/S33E (from UniProt A0A0H3K686 37-327)	49600	Ka [9]: 41.2 M⁻¹; Ka [10]: 32.7 M⁻¹
SpAQ9,10K/G29N (from UniProt A0A0H3K686 37-327)	623000	–
SpAQ9,10K/S33F/D36,37A/G29R	906000	–
